Data reported in patent publication US20250269025A1 (AVENCELL THERAPEUTICS, published 2025).

How the values were obtained:
[1] = molecular target: T1, CD123 on CD123 positive AML cells (Oci-AML3, Molm-13, MV4-11, primary AML cells) (human, UniProt P26951 19-378); experiment: cell-based or functional assay
[2] = molecular target: T1, CD123 on CD123 positive AML cells …; experiment: cell-based or functional assay; remark: listed apart in the source

B1: targeting module according to SEQ ID No. 5 (bispecific antibody)
chain: EVQLQQSGPELVKPGASVKMSCKASGYTFTDYYMKWVKQSHGKSLEWIGDIIPSNGATFYNQKFKGKATLTVDRSSSTAYMHLNSLTSEDSAVYYCTRSHLLRASWFAYWGQGTLVTVSAASGGGGSGGGGSGGGGSDFVMTQSPSSLTVTAGEKVTMSCKSSQSLLNSGNQKNYLTWYLQKPGQPPKLLIYWASTRESGVPDRFTGSGSGTDFTLTISSVQAEDLAVYYCQNDYSYPYTFGGGTKLEIKAAARGDIVMTQSPDSLAVSLGERATINCKSSQSLLNSRTPKNYLAWYQQKPGQPPKLLIYWASTRKSGVPDRFSGSGSGTDFTLTISSLQAEDVAVYYCKQSYNLLTFGGGTKVEIKGGGGSGGGGSGASAAGGGGSGGGGSQVQLVQSGAEVKKPGASVKVSCKASGYTFTHYYIYWVRQAPGQGLEWMGGVNPSNGGTHFNEKFKSRVTMTRDTSISTAYMELSRLRSDDTAVYYCARSEYDYGLGFAYWGQGTLVTVSSGGGGSHHHHHHHH
notes: also called R-TM123; muCD123 + 5B9-VL-VH
- EC50 of R-TM123 for CD25 expression on CD4+ RevCAR-T, co-culture with MOLM-13, Donor #1 [1]: 2.6 pM
- EC50 of R-TM123 for CD25 expression on CD4+ RevCAR-T, co-culture with MOLM-13, Donor #2 [1]: 2.2 pM
- EC50 of R-TM123 for CD25 expression on CD4+ RevCAR-T, co-culture with MOLM-13, Donor #3 [1]: 2.3 pM
- EC50 of R-TM123 for CD25 expression on CD4+ RevCAR-T, co-culture with MOLM-13, Donor #4 [1]: 1.2 pM
- EC50 of R-TM123 for CD25 expression on CD4+ RevCAR-T, co-culture with MOLM-13, Mean [1]: 2.1 pM
- EC50 of R-TM123 for CD25 expression on CD4+ RevCAR-T, co-culture with MV4-11, Donor #1 [1]: 8 pM
- EC50 of R-TM123 for CD25 expression on CD4+ RevCAR-T, co-culture with MV4-11, Donor #2 [1]: 6.5 pM
- EC50 of R-TM123 for CD25 expression on CD4+ RevCAR-T, co-culture with MV4-11, Donor #3 [1]: 10.2 pM
- EC50 of R-TM123 for CD25 expression on CD4+ RevCAR-T, co-culture with MV4-11, Donor #4 [1]: 8.9 pM
- EC50 of R-TM123 for CD25 expression on CD4+ RevCAR-T, co-culture with MV4-11, Mean [1]: 8.4 pM
- EC50 of R-TM123 for CD25 expression on CD4+ RevCAR-T, co-culture with OCI-AML3, Donor #1 [1]: 2.9 pM
- EC50 of R-TM123 for CD25 expression on CD4+ RevCAR-T, co-culture with OCI-AML3, Donor #2 [1]: 3 pM
- EC50 of R-TM123 for CD25 expression on CD4+ RevCAR-T, co-culture with OCI-AML3, Donor #3 [1]: 2.3 pM
- EC50 of R-TM123 for CD25 expression on CD4+ RevCAR-T, co-culture with OCI-AML3, Donor #4 [1]: 2.4 pM
- EC50 of R-TM123 for CD25 expression on CD4+ RevCAR-T, co-culture with OCI-AML3, Mean [1]: 2.6 pM
- EC50 of R-TM123 for CD25 expression on CD8+ RevCAR-T, co-culture with MOLM-13, Donor #1 [1]: 5.2 pM
- EC50 of R-TM123 for CD25 expression on CD8+ RevCAR-T, co-culture with MOLM-13, Donor #2 [1]: 4.3 pM
- EC50 of R-TM123 for CD25 expression on CD8+ RevCAR-T, co-culture with MOLM-13, Donor #3 [1]: 6 pM
- EC50 of R-TM123 for CD25 expression on CD8+ RevCAR-T, co-culture with MOLM-13, Donor #4 [1]: 2.1 pM
- EC50 of R-TM123 for CD25 expression on CD8+ RevCAR-T, co-culture with MOLM-13, Mean [1]: 4.4 pM
- EC50 of R-TM123 for CD25 expression on CD8+ RevCAR-T, co-culture with MV4-11, Donor #1 [1]: 6.7 pM
- EC50 of R-TM123 for CD25 expression on CD8+ RevCAR-T, co-culture with MV4-11, Donor #2 [1]: 4.3 pM
- EC50 of R-TM123 for CD25 expression on CD8+ RevCAR-T, co-culture with MV4-11, Donor #3 [1]: 7.2 pM
- EC50 of R-TM123 for CD25 expression on CD8+ RevCAR-T, co-culture with MV4-11, Donor #4 [1]: 5.1 pM
- EC50 of R-TM123 for CD25 expression on CD8+ RevCAR-T, co-culture with MV4-11, Mean [1]: 5.8 pM
- EC50 of R-TM123 for CD25 expression on CD8+ RevCAR-T, co-culture with OCI-AML3, Donor #1 [1]: 8.7 pM
- EC50 of R-TM123 for CD25 expression on CD8+ RevCAR-T, co-culture with OCI-AML3, Donor #2 [1]: 15.7 pM
- EC50 of R-TM123 for CD25 expression on CD8+ RevCAR-T, co-culture with OCI-AML3, Donor #3 [1]: 14.6 pM
- EC50 of R-TM123 for CD25 expression on CD8+ RevCAR-T, co-culture with OCI-AML3, Donor #4 [1]: 4.8 pM
- EC50 of R-TM123 for CD25 expression on CD8+ RevCAR-T, co-culture with OCI-AML3, Mean [1]: 11 pM
- EC50 of R-TM123 for RevCAR-T mediated lysis of MOLM-13, Donor #1 [2]: 1.3 pM
- EC50 of R-TM123 for RevCAR-T mediated lysis of MOLM-13, Donor #2 [2]: 2.2 pM
- EC50 of R-TM123 for RevCAR-T mediated lysis of MOLM-13, Donor #3 [2]: 2.6 pM
- EC50 of R-TM123 for RevCAR-T mediated lysis of MOLM-13, Donor #4 [2]: 1 pM
- EC50 of R-TM123 for RevCAR-T mediated lysis of MOLM-13, Mean [2]: 1.8 pM
- EC50 of R-TM123 for RevCAR-T mediated lysis of MV4-11, Donor #1 [2]: 2.8 pM
